Source: patent publication US7361341B2, “Methods of treating cancer using antibodies that immunospecifically bind to trail receptors” (Human Genome Sciences, Inc., priority 2001, dated 2008)

What was measured:
Assay in all cases: Specificity phage ELISA
Assay type in all cases: binding
Conditions in all cases: antigen coated at 1 μg/ml, absorbance at 450 nm
[1] = molecular target: TR7 (Homo sapiens, UniProt O14763)
Description: (§1) To determine the specificity of the antibodies which bound TR4, a phage ELISA was performed against human TR4 fusion protein, and a panel of related and unrelated human antigens TR7, TR5, TR10, BlyS (described in International Patent Publication Numbers WO98/18921 and WO00/50597, which are both herein icorprated by reference in their entireties), irrelevant fusion protein and BSA.
(§2) Individual E. coli colonies containing phagemid were inoculated into 5 ml 2YTAG and incubated at 37° C. for 4 hours, shaking. M13K07 helper phage (Pharmacia) was added to each tube to an moi of 10 and incubated for […], the first 30 minutes static and the final 30 minutes with gentle shaking. Cells were pelleted by centrifugation at 3,500 rpm for 10 minutes. The phage containing supernatant (5 ml) was carefully transferred to a fresh tube, 1 ml of 6 MPBS added and then incubated at room temperature for 1 hour to pre-block the phage prior to ELISA.
(§3) Flexible 96-well plates (Falcon) were coated overnight at 4° C. with each antigen (1 μg/ml). All antigens were coated in PBS. After coating, the solutions were removed from the wells, and the plates were blocked for 1 hour at room temperature in MPBS. The plates were washed 3 times with PBS and then 50 μl of pre-blocked phage was added to each well. The plates were incubated at room temperature for 1 hour and then washed with 3 changes of PBST followed by 3 changes of PBS.
(§4) To each well, 50 μl of an anti-M13-HRP conjugate (Pharmacia) at a 1 in 5000 dilution in MPBS was added and the plates incubated at room temperature for 1 hour. Each plate was washed three times with PBST followed by three times with PBS.
(§5) Fifty μl of TMB substrate was then added to each well, and incubated at room temperature for 30 minutes or until colour development. The reaction was stopped by the addition of 25 μl of 0.5 M H2SO4. The signal generated was measured by reading the absorbance at 450 nm (A450) using a microtitre plate reader (Bio-Rad 3550).

[2] = molecular target: BLyS (Homo sapiens, UniProt Q9Y275)
BLyS, sequence (Q9Y275 whole entry): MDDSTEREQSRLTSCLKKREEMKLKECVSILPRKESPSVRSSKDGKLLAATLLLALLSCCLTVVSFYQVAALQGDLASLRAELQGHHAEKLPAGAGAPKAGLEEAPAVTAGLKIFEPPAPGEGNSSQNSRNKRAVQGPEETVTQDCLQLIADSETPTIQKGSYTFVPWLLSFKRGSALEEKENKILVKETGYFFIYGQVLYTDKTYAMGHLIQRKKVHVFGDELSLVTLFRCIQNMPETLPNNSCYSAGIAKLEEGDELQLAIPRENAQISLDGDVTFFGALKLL
Description: as §1, §2, §3, §4, §5

[3] = test system: irrelevant fusion protein
Description: as §1, §2, §3, §4, §5

[4] = molecular target: T1, TR10 (Homo sapiens, UniProt Q9UBN6, L310S)
T1 sequence (Q9UBN6 56-386 L310S): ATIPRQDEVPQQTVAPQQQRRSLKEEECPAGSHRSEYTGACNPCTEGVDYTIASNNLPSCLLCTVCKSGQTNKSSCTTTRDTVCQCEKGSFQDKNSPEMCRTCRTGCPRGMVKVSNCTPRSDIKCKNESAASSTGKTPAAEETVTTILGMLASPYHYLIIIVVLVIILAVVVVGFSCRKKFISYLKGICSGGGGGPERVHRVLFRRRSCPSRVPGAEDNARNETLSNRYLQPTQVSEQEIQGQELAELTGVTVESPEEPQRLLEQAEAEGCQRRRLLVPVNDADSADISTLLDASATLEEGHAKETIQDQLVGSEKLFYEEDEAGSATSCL
Description: as §1, §2, §3, §4, §5

[5] = molecular target: T2, TR5 (Homo sapiens, UniProt O14798, I229T)
T2 sequence (O14798 with tags, fused parts or gaps I229T limits assumed): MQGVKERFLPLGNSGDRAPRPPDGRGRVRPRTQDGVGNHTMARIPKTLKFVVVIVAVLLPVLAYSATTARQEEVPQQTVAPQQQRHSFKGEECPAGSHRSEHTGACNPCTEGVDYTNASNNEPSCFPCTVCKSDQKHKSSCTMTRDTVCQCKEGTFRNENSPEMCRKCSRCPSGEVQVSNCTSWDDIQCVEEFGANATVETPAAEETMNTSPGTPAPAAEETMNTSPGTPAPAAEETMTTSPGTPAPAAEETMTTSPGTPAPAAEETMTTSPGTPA
Description: as §1, §2, §3, §4, §5

[6] = molecular target: T3, human TR4 fusion protein (Homo sapiens, UniProt O00220, H141R/R209T)
T3 construct: made in house
T3 sequence (O00220 109-240 H141R/R209T): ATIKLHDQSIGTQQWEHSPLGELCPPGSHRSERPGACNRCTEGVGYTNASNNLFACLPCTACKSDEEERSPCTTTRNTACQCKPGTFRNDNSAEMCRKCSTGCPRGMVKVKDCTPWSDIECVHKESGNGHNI
Description: as §1, §2, §3, §4, §5

TR7, sequence (O14763 56-411 isoform O14763-2 limits assumed): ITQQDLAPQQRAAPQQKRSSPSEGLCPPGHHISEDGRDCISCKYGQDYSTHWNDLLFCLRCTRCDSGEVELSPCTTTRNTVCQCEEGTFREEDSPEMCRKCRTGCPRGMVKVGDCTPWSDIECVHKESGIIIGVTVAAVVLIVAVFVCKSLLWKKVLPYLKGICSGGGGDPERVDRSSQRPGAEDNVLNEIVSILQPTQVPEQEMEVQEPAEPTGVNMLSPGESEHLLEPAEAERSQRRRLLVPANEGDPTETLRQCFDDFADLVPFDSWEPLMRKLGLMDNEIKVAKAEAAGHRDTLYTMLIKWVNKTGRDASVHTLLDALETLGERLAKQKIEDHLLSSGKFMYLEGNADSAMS

- binding to TR7 [1]: not
- binding to BLyS [2]: not
- binding to an irrelevant fusion protein [3]: not
- binding to TR10 [4]: not
- binding to TR5 [5]: not
- binding to TR4 [6]: bind
B1: T1014B11: scFv that immunospecifically binds TRAIL receptor TR4, protein SEQ ID NO:47 (protein)
scFv: EVQLVQSGAEVKKPGASVKVSCKISGDSFTAYFIHWLRQAPGEGLEWMGWFNPISGTAGSPQKFHGRVAMTRDTSISTAYMELTRLASDDTAIYYCARQHHSNTFDPWGQGTLVTVSSGGGGSGGGGSGGGGSAQSALTQPASVSGSPGQSITISCTGTNSDVGGYNYVSWYQQHPGKAPKLMIYEVNNRPSGVSNRFSGSKSGNTASLTISGLQADDEADYYCSSYTTSNTWVFGGGTKLTVLG
modifications: T1014B11 scFv
